Article PMC5336696, “Structural basis for potency differences between GDF8 and GDF11” (BMC Biology, 2017)

T1: mature growth/differentiation factor 11 (GDF11) (human) (UniProt O95390)
T1 sequence: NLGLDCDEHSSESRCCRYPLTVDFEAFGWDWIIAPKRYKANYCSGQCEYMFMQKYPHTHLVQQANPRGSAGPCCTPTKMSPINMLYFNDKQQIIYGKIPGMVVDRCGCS

T2: mature growth/differentiation factor 8 (GDF8) (human) (UniProt O14793)
T2 sequence: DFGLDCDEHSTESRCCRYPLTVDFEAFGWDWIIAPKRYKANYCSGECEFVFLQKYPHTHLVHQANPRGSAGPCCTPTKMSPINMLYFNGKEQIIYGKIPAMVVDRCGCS

T3: mature growth/differentiation factor 11 (GDF11) (human, UniProt O95390 299-407)
T3 sequence (looked up): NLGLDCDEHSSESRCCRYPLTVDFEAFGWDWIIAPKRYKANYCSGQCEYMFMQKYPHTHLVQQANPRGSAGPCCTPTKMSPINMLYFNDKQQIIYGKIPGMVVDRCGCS

T4: mature growth/differentiation factor 8 (GDF8) (human, UniProt O14793 267-375)
T4 sequence (looked up): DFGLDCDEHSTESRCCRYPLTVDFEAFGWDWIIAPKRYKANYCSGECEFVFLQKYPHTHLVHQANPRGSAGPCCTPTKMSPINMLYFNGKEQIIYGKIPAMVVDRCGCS


How the values were obtained:
[1] = molecular target: T1, mature growth/differentiation factor 11 (GDF11) (human)
[2] = molecular target: T2, mature growth/differentiation factor 8 (GDF8) (human)
[3] = molecular target: T3, mature growth/differentiation factor 11 …; assay: cell-based or functional assay
[4] = molecular target: T4, mature growth/differentiation factor 8 …; assay: cell-based or functional assay
[5] = molecular target: T3, mature growth/differentiation factor 11 …; assay: cell-based or functional assay; remark: listed apart in the source
[6] = molecular target: T3, mature growth/differentiation factor 11 …; assay: cell-based or functional assay; remark: listed apart in the source
[7] = molecular target: T4, mature growth/differentiation factor 8 …; assay: cell-based or functional assay; remark: listed apart in the source

| IC50 of inhibition of 0.62 nM GDF11, (CAGA)12 luciferase reporter in HEK293 cells [1] | IC50 of inhibition of 0.62 nM GDF8, (CAGA)12 luciferase reporter in HEK293 cells [2] | IC50 of inhibition of 0.62 nM GDF11 by the soluble receptor, (CAGA)12 luciferase reporter in HEK293 cells [6] | IC50 of inhibition of 0.62 nM GDF8 by the soluble receptor, (CAGA)12 luciferase reporter in HEK293 cells [7] | Binder | also measured |
| --- | --- | --- | --- | --- | --- |
| 4 nM | 1.2 nM | – | – | follistatin-like 3 (FSTL3) (natural protein) MGSGNPAPGGVCWLQQGQEATCSLVLQTDVTRAECCASGNIDTAWSNLTHPGNKINLLGFLGLVHCLPCKDSCDGVECGPGKACRMLGGRPRCECAPDCSGLPARLQVCGSDGATYRDECELRAARCRGHPDLSVMYRGRCRKSCEHVVCPRPQSCVVDQTGSAHCVVCRAAPCPVPSSPGQELCGNNNVTYISSCHMRQATCFLGRSIGVRHAGSCAGTPEEPPGGESAEEEENFV | – |
| – | – | 13 nM | 12.4 nM | ActRIIB extracellular domain (ActRIIB-ECD) (receptor, UniProt P38445 19-137, looked up) SGRGEAETRECIYYNANWELERTNQSGLERCEGEQDKRLHCYASWRNSSGTIELVKKGCWLDDFNCYDRQECVATEENPQVYFCCCEGNFCNERFTHLPEPGGPEVTYEPPPTAPTLLT | IC50 of inhibition of 0.62 nM GDF11 by the soluble receptor, (CAGA)12 luciferase reporter in HEK293 cells (value of the text) [5]: 14 nM |

The remaining lines, values behind:

| Binder | IC50 of inhibition of 0.62 nM GDF11, (CAGA)12 luciferase reporter in HEK293 cells [1] | IC50 of inhibition of 0.62 nM GDF8, (CAGA)12 luciferase reporter in HEK293 cells [2] | IC50 of inhibition of 0.62 nM GDF11 by the soluble receptor, (CAGA)12 luciferase reporter in HEK293 cells [6] | IC50 of inhibition of 0.62 nM GDF8 by the soluble receptor, (CAGA)12 luciferase reporter in HEK293 cells [7] | also measured |
| --- | --- | --- | --- | --- | --- |
| GASP2 (natural protein) AGLLPGLGSHPGVCPNQLSPNLWVDAQSTCERECSRDQDCAAAEKCCINVCGLHSCVAARFPGSPAAPTTAASCEGFVCPQQGSDCDIWDGQPVCRCRDRCEKEPSFTCASDGLTYYNRCYMDAEACLRGLHLHIVPCKHVLSWPPSSPGPPETTARPTPGAAPVPPALYSSPSPQAVQVGGTASLHCDVSGRPPPAVTWEKQSHQRENLIMRPDQMYGNVVVTSIGQLVLYNARPEDAGLYTCTARNAAGLLRADFPLSVVQREPARDAAPSIPAPAECLPDVQACTGPTSPHLVLWHYDPQRGGCMTFPARGCDGAARGFETYEACQQACARGPGDACVLPAVQGPCRGWEPRWAYSPLLQQCHPFVYGGCEGNGNNFHSRESCEDACPVPRTPPCRACRLRSKLALSLCRSDFAIVGRLTEVLEEPEAAGGIARVALEDVLKDDKMGLKFLGTKYLEVTLSGMDWACPCPNMTAGDGPLVIMGEVRDGVAVLDAGSYVRAASEKRVKKILELLEKQACELLNRFQD | 18.3 nM | 4.1 nM | – | – | – |
| follistatin 288 (FS288) (natural protein, UniProt P19883-2 30-317, looked up) GNCWLRQAKNGRCQVLYKTELSKEECCSTGRLSTSWTEEDVNDNTLFKWMIFNGGAPNCIPCKETCENVDCGPGKKCRMNKKNKPRCVCAPDCSNITWKGPVCGLDGKTYRNECALLKARCKEQPELEVQYQGRCKKTCRDVFCPGSSTCVVDQTNNAYCVTCNRICPEPASSEQYLCGNDGVTYSSACHLRKATCLLGRSIGLAYEGKCIKAKSCEDIQCTGGKKCLWDFKVGRGRCSLCDELCPDSKSDEPVCASDNATYASECAMKEAACSSGVLLEVKHSGSCN | – | – | – | – | IC50 of inhibition of 0.62 nM GDF11, (CAGA)12 luciferase reporter in HEK293 cells [3]: 0.3 nM; IC50 of inhibition of 0.62 nM GDF8, (CAGA)12 luciferase reporter in HEK293 cells [4]: 0.2 nM |
| growth/differentiation factor-associated serum protein 1 (GASP1) (natural protein) LPPIRYSHAGICPNDMNPNLWVDAQSTCRRECETDQECETYEKCCPNVCGTKSCVAARYMDVKGKKGPVGMPKEATCDHFMCLQQGSECDIWDGQPVCKCKDRCEKEPSFTCASDGLTYYNRCYMDAEACSKGITLAVVTCRYHFTWPNTSPPPPETTMHPTTASPETPELDMAAPALLNNPVHQSVTMGETVSFLCDVVGRPRPEITWEKQLEDRENVVMRPNHVRGNVVVTNIAQLVIYNAQLQDAGIYTCTARNVAGVLRADFPLSVVRGHQAAATSESSPNGTAFPAAECLKPPDSEDCGEEQTRWHFDAQANNCLTFTFGHCHRNLNHFETYEACMLACMSGPLAACSLPALQGPCKAYAPRWAYNSQTGQCQSFVYGGCEGNGNNFESREACEESCPFPRGNQRCRACKPRQKLVTSFCRSDFVILGRVSELTEEPDSGRALVTVDEVLKDEKMGLKFLGQEPLEVTLLHVDWACPCPNVTVSEMPLIIMGEVDGGMAMLRPDSFVGASSARRVRKLREVMHKKTCDVLKEFLGLH | 0.3 nM | 0.2 nM | – | – | – |
| Fc-ActRIIB-ECD (Fc fusion, UniProt Q13705 19-137, looked up) SGRGEAETRECIYYNANWELERTNQSGLERCEGEQDKRLHCYASWRNSSGTIELVKKGCWLDDFNCYDRQECVATEENPQVYFCCCEGNFCNERFTHLPEAGGPEVTYEPPPTAPTLLT | – | – | 10.3 nM | 3 nM | – |
